Test results reported in paper PMC1839165, “Virus Evolution Reveals an Exclusive Role for LEDGF/p75 in Chromosomal Tethering of HIV” (PLoS Pathogens, 2007).

B1: MBP-IBD (domain or fragment, human, UniProt O75475-1 347-429, looked up)
chain: SMDSRLQRIHAEIKNSLKIDNLDVNRCIEALDELASLQVTMQQAQKHTEMITTLKKIRRFKVSQVIMEKSTMLYNKFKNMFLV
notes: the introduction gives amino acids 347 to 429 for the IBD; GenBank NM_033222; The limits are those printed for the minimal IBD in the introduction; also called IBD-MBP; source: E. coli BL21 (plasmid pMBP-IBD), purified
B2: MBP-Δ325 (domain or fragment, human, UniProt O75475-1 325-530, looked up)
chain: EQQNKDEGKKPEVKKVEKKRETSMDSRLQRIHAEIKNSLKIDNLDVNRCIEALDELASLQVTMQQAQKHTEMITTLKKIRRFKVSQVIMEKSTMLYNKFKNMFLVGEGDSVITQVLNKSLAEQRQHEEANKTKDQGKKGPNKKLEKEQTGSKTLNGGSDAQDGNQPQHNGESNEDSKDNHEASTKKKPSSEERETEISLKDSTLDN
notes: GenBank NM_033222; also called Δ325-MBP; Δ325 fragment; source: E. coli BL21 (plasmid pMBP-Δ325), purified
B3: C-terminal His6-tagged HIV-1 integrase, wild type (enzyme, HIV-1 (NL4-3), UniProt P12497 1148-1435, looked up)
chain: FLDGIDKAQEEHEKYHSNWRAMASDFNLPPVVAKEIVASCDKCQLKGEAMHGQVDCSPGIWQLDCTHLEGKVILVAVHVASGYIEAEVIPAETGQETAYFLLKLAGRWPVKTVHTDNGSNFTSTTVKAACWWAGIKQEFGIPYNPQSQGVIESMNKELKKIIGQVRDQAEHLKTAVQMAVFIHNFKRKGGIGGYSAGERIVDIIATDIQTKELQKQITKIQNFRVYYRDSRDPVWKGPAKLLWKGEGAVVIQDNSDIKVVPRRKAKIIRDYGKQMAGDDCVASRQDED
notes: HIV-1 NL4-3 integrase (IN), the cut product of the Gag-Pol polyprotein; GenBank U26942, base pairs 3608 through 4471; the results call it IN^s (IN from a synthetic gene); also called IN-WT; WT IN^s; not shown: His6, C-terminal, kept

Experiments:
[1] = target: C-terminal His6-tagged HIV-1 integrase E170G (HIV-1 (NL4-3)); assay: AlphaScreen or HTRF; 300 nM C-terminal His6-tagged IN with increasing MBP-Δ325 (30 to 300 nM); Ni-chelate acceptor beads, anti-MBP donor beads; 25 mM Tris/HCl pH 7.3, 150 mM NaCl, 1 mM MgCl2, 0.01% Tween-20, 0.1% BSA; room temperature
[2] = target: C-terminal His6-tagged HIV-1 integrase A128T (HIV-1 (NL4-3)); assay: as above
[3] = target: C-terminal His6-tagged HIV-1 integrase A128T/E170G (HIV-1 (NL4-3)); assay: as above
[4] = target: B3; assay: pull-down; 6 μg C-terminal His6-tagged IN on Ni-NTA-agarose; 6 μg LEDGF/p75, MBP-IBD or MBP-Δ325 added; 25 mM Tris-HCl pH 7.4, 0.1% Nonidet P-40, 20 mM imidazole, 150 mM NaCl, 1 mM MgCl2, BSA; 4 h at 4 °C; SDS-PAGE, Coomassie Blue; details: both partners purified
[5] = target: B3; assay: AlphaScreen or HTRF; 30 nM C-terminal His6-tagged IN with increasing MBP-Δ325 (30 to 300 nM); Ni-chelate acceptor beads, anti-MBP donor beads; 25 mM Tris/HCl pH 7.3, 150 mM NaCl, 1 mM MgCl2, 0.01% Tween-20, 0.1% BSA; room temperature; details: both partners purified
[6] = target: T1, Nontagged LEDGF/p75 (human, UniProt O75475-1 1-530); assay: pull-down; 6 μg C-terminal His6-tagged IN on Ni-NTA-agarose; 6 μg LEDGF/p75, MBP-IBD or MBP-Δ325 added; 25 mM Tris-HCl pH 7.4, 0.1% Nonidet P-40, 20 mM imidazole, 150 mM NaCl, 1 mM MgCl2, BSA; 4 h at 4 °C; SDS-PAGE, Coomassie Blue; details: both partners purified
T1 construct: LEDGF/p75, human, 530 amino acids, GenBank NM_033222; also called recombinant LEDGF/p75; full-length LEDGF/p75; source: E. coli BL21(DE3) (plasmid pCPnat75), purified

Molecule: MBP-Δ325 (from UniProt O75475-1 325-530) (domain or fragment)
- fold reduction of the AlphaScreen signal compared with IN-WT (300 nM IN) [1]: 3 fold
- fold reduction of the AlphaScreen signal compared with IN-WT (300 nM IN) [2]: 2 fold
- fold reduction of the AlphaScreen signal compared with IN-WT (300 nM IN, 300 nM MBP-Δ325) [3]: 8 fold

Molecule: B1
- binding result [4]: binds

Molecule: B2
- binding result [5]: binds

Molecule: B3
- binding result [6]: binds
